Results reported in patent US20220135694A1, “NOVEL CD40-BINDING ANTIBODIES” (LAVA THERAPEUTICS B.V., priority 2019, published 2022).

Legend:
CD40 [1] = target: T1, CD40 (Homo sapiens, UniProt P25942); assay: CD40 agonistic activity in primary CLL cells, 48 h, flow cytometry; assay type: cell-based; settings: for CD40 stimulation (viability, CD86 and CD95 expression): various concentrations, FIG. 3A-C
T1 construct: Primary chronic lymphocytic leukemia (CLL) cells express CD40 on the cell surface; endogenous in cells; host or cells: primary CLL PBMCs from untreated CLL patients
Experimental: PBMCs (≥90% CD5^+CD19^+) from untreated CLL patients were obtained and cryopreserved as described in Example 3. Thawed cells were kept in complete IMDM.
To assess whether binding of the VHH to CD40 has agonistic effects, primary CLL PBMCs were cultured for 48 hours in the presence of VHH, medium control or recombinant multimeric CD40 ligand (rmCD40L; 100 ng/mL, Bioconnect).
After 48 hours, cells were harvested, washed and incubated with AF700-conjugated anti-CD19 (557921), FITC-conjugated anti-CD80 (6109965), APC-conjugated anti-CD86 (555660, all BD Biosciences), PE-conjugated anti-CD5 (12-0059-42, Thermo Fisher Scientific) and PECy7-conjugated anti-CD95 (305621, Biolegend, San Diego, Calif., USA) antibodies for 20 minutes at 4° C. Alternatively, after 48 hours, cells were harvested and viability was measured using Mitotracker Orange (25-minute incubation at 37° C.) and To-pro-3 (10-minute incubation at room temperature; both Thermo Fisher Scientific). Samples were measured on a FACSCanto cytometer (BD Biosciences) and analyzed with Flowjo MacV10.
To assess whether binding of the VHH has agonistic effects, primary CLL PBMCs were cultured with the indicated concentrations of V19S76K-5C8, medium control or rmCD40L for 48 hours and analyzed by flow cytometry as described in Example 4.

human CD40 [2] = target: T2, human CD40 (human, UniProt P25942 21-277); assay: cell-based or functional assay
human CD40 [3] = target: T2, human CD40; assay: flow cytometry, CD40-transfected HEK293T cells, VHH 1 µM, Myc-tag detection; controls: cells without VHH and WT HEK293T with and without VHH
Experimental: FIG. 1: Anti-CD40 VHHs bind to CD40-expressing cells. (A) CD40 expression on WT (filled histogram) and CD40-transfected (unfilled histogram) HEK293T cells. (B) CD40-negative WT or CD40-transfected HEK293T cells were incubated with V12t (1 μM), V15t (1 μM), V19t (1 μM) or medium control and the Myc-tag was subsequently detected by flow cytometry. Representative histograms obtained in 3 independent experiments are shown.

[4] = target: T3, human CD40 (CD40-transfected HEK293T cells) (Homo sapiens, UniProt P25942); assay: Monovalent VHH binding to CD40-transfected HEK293T cells, Myc-tag flow cytometry; settings: for average geometric mean fluorescence intensity (Myc-tag): CD40-transfected HEK293T cells, 2 experiments
T3 construct: expressed in transfected cells; host or cells: HEK293T
Experimental: The embryonic kidney cell line HEK293T, either wildtype (WT) or transfected with human CD40, was grown in Dulbecco's Modified Eagle Medium (41965-039, Thermo Fisher Scientific, Waltham, Mass., USA), supplemented with 10% fetal calf serum (F7524, Merck, Kenilworth, N.J., USA), 200 mM L-glutamine (25030-123, Thermo Fisher Scientific), 0.05 mM β-mercapto-ethanol (M6250, Merck) and 10,000 U/mL penicillin/streptomycin (15140-122, Thermo Fisher Scientific), hereafter referred to as complete DMEM.
CD40 expression on CD40-transfected cells was confirmed by incubation with a PE-conjugated anti-CD40 antibody (IM1936U, Beckman Coulter, Brea, Calif., USA) for 20 minutes at 4° C. […] Bound VHH was detected by sequential incubation with mouse-anti-Myc tag (05-274, Merck) and AF488-conjugated goat-anti-mouse (A-11001, Thermo Fisher Scientific) antibodies for 20 minutes at 4° C.
Samples were measured on a FACSCanto cytometer (BD Biosciences, Franklin Lakes, N.J., USA) and analyzed with Flowjo MacV10.

CD40 [5] = target: T1, CD40; assay: CD40 antagonistic activity in primary CLL cells: pre-incubation, then rmCD40L for 48 h; assay type: cell-based; settings: 30 min pre-incubation, then rmCD40L 100 ng/mL for 48 hours; FIG. 4A-C
Experimental: PBMCs (≥90% CD5^+CD19^+) from untreated CLL patients were obtained and cryopreserved as described in […]. Thawed cells were kept in complete IMDM.
To test whether the VHH antagonizes CD40 stimulation, primary CLL PBMCs were pre-incubated with VHH or medium control for 30 minutes at 37° C. and subsequently cultured for 48 hours in the presence of rmCD40L (100 ng/mL).
After 48 hours, cells were analyzed by flow cytometry as described in Example 4.
To assess whether binding of the VHH has antagonistic effects, primary CLL PBMCs were pre-incubated with V19S76K-5C8 or medium control and then cultured with rmCD40L for 48 hours and analyzed by flow cytometry as described in Example 5.

CD40+ CII target cells = assay: Cytotoxicity assay: CII target cells with Vγ9Vδ2-T cells; assay type: cell-based, human; settings: overnight with Vγ9Vδ2-T cells, 1:1 ratio; FIG. 11A
Experimental: CD40^+ CII cells and Vγ9Vδ2-T cells were grown as described in Example 7.
CII target cells were labeled with carboxyfluorescein succinimidyl ester (CFSE; C1157, Thermo Fisher Scientific) and incubated with VHH or medium control for 30 minutes at 37° C. Target cells were then cocultured overnight with Vγ9Vδ2-T cell lines in a 1:1 ratio.
Viability was measured as described in Example 4.

T3 sequence (P25942 21-277): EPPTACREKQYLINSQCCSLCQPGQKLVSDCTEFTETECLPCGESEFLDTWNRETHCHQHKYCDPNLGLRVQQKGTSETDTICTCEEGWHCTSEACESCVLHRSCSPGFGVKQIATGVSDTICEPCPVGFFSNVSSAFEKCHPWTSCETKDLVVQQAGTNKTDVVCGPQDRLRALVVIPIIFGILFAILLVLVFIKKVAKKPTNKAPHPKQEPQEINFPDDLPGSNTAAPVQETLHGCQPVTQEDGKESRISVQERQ
T2 sequence (P25942 21-277 limits assumed): as the sequence (P25942 21-277) above
T1 sequence (P25942 21-277): as above

## rmCD40L: recombinant multimeric CD40 ligand, 100 ng/mL, Bioconnect [reference compound]
CD40 [1]; FIG. 7A-C
  CD40 stimulation (expression of CD80, CD86 and CD95): effectively induced CD40 stimulation
CD40 [1]
  CD40 stimulation (viability, CD86 and CD95 expression): effectively induced CD40 stimulation

B1: V15-5C8t (bispecific antibody)
chain: EVQLQESGGGLVQAGGSLRLSCVTSGSAFSSDTMGWFRQAPGKQRELVASISSRGVREYADSVKGRFTISRDNAKNTVYLQMNSLQPEDTAVYYCNRGALGLPGYRPYNNWGQGTQVTVSSGGGGSEVQLVESGGGLVQAGGSLRLSCAASGRPFSNYAMGWFRQAPGKEREFVAAISWSGGSTSYADSVKGRFTISRDNAKNTVYLQMNSPKPEDTAIYYCAAQFSGADYGFGRLGIRGYEYDYWGQGTQVTVSSGLEGHSDHMEQKLISEEDLNRISDHHHHHH
Human CD40 [2]
  lysis of primary CLL cells by Vγ9Vδ2-T cells (specific cell death) at 100 nM: 70.5%

B2: V12t (VHH)
VHH: QVQLQESGGGLVQAGGSLRLSCAASGLVFKRYSMNWYRQPPGQQRGLVASISDSGVSTNYADSVKGRFTISRDNAKNIGYLQMNSLKPEDTAVYYCNMHTFWGQGTQVTVSS
notes: Llama VHH with C-terminal Myc- and His6-tag; also called monovalent anti-CD40 VHH V12t
Human CD40 [3]
  binding result: binds

B3: V19S76Kt: V19t VHH in which serine at position 76 (putative glycosylation site) was altered into lysine, SEQ ID NO:22 (protein)
VHH: QVQLQESGGGLVQAGGSLRLSCAASGRTFGRSAMGWFRQAPGKEREFVAAIGTRGGSTKYADSVKGRFTISTDNAKNTVYLQMDSLKPEDTAVYRCAVRGPGYPSAAIFQDEYHYWGQGTQVTVSSGLEGHSDHMEQKLISEEDLNRISDHHHHHH
modifications: antibody sequence
[4]
  binding affinity to CD40 after S76K mutation, relative to V19t: retained
[4]; VHH concentration 1 pM
  average geometric mean fluorescence intensity (Myc-tag): 4790
[4]; VHH concentration 10 pM
  average geometric mean fluorescence intensity (Myc-tag): 4949
[4]; VHH concentration 100 pM
  average geometric mean fluorescence intensity (Myc-tag): 5502
[4]; VHH concentration 1 nM
  average geometric mean fluorescence intensity (Myc-tag): 7906
[4]; VHH concentration 10 nM
  average geometric mean fluorescence intensity (Myc-tag): 9283
[4]; VHH concentration 100 nM
  average geometric mean fluorescence intensity (Myc-tag): 17062

B4: V15t (VHH)
VHH: EVQLQESGGGLVQAGGSLRLSCVTSGSAFSSDTMGWFRQAPGKQRELVASISSRGVREYADSVKGRFTISRDNAKNTVYLQMNSLQPEDTAVYYCNRGALGLPGYRPYNNWGQGTQVTVSS
notes: Llama VHH with C-terminal Myc- and His6-tag; also called monovalent anti-CD40 VHH V15t
Human CD40 [3]
  binding result: binds

B5: V12t: monovalent anti-CD40 VHH V12 with C-terminal Myc- and His6-tag, SEQ ID NO:36 (protein)
VHH: QVQLQESGGGLVQAGGSLRLSCAASGLVFKRYSMNWYRQPPGQQRGLVASISDSGVSTNYADSVKGRFTISRDNAKNIGYLQMNSLKPEDTAVYYCNMHTFWGQGTQVTVSSGLEGHSDHMEQKLISEEDLNRISDHHHHHH
modifications: antibody sequence
[4]; detection of the Myc tag, FIG. 1B
  binding to CD40-expressing cells: bound to the CD40-expressing cells
CD40 [5]
  prevention of CD40L-induced CD40 stimulation (viability, CD86 and CD95 expression): did not block CD40L-induced effects
CD40 [1]
  CD40 stimulation (viability, CD86 and CD95 expression): did not induce any of these effects

B6: V19-5C8t (bispecific antibody)
chain: QVQLQESGGGLVQAGGSLRLSCAASGRTFGRSAMGWFRQAPGKEREFVAAIGTRGGSTKYADSVKGRFTISTDNASNTVYLQMDSLKPEDTAVYRCAVRGPGYPSAAIFQDEYHYWGQGTQVTVSSGGGGSEVQLVESGGGLVQAGGSLRLSCAASGRPFSNYAMGWFRQAPGKEREFVAAISWSGGSTSYADSVKGRFTISRDNAKNTVYLQMNSPKPEDTAIYYCAAQFSGADYGFGRLGIRGYEYDYWGQGTQVTVSSGLEGHSDHMEQKLISEEDLNRISDHHHHHH
Human CD40 [2]
  lysis of primary CLL cells by Vγ9Vδ2-T cells (specific cell death) at 100 nM: 68.5%

B7: V12-5C8t (bispecific antibody)
chain: QVQLQESGGGLVQAGGSLRLSCAASGLVFKRYSMNWYRQPPGQQRGLVASISDSGVSTNYADSVKGRFTISRDNAKNIGYLQMNSLKPEDTAVYYCNMHTFWGQGTQVTVSSGGGGSEVQLVESGGGLVQAGGSLRLSCAASGRPFSNYAMGWFRQAPGKEREFVAAISWSGGSTSYADSVKGRFTISRDNAKNTVYLQMNSPKPEDTAIYYCAAQFSGADYGFGRLGIRGYEYDYWGQGTQVTVSSGLEGHSDHMEQKLISEEDLNRISDHHHHHH
Human CD40 [2]
  lysis of primary CLL cells by Vγ9Vδ2-T cells (specific cell death) at 100 nM: 45.3%

B8: V12-5C8t: bispecific VHH: anti-CD40 V12 joined to anti-Vδ2-TCR 5C8 by Gly4Ser linker, Myc- and His6-tag, SEQ ID NO:37 (protein)
VHH: B7 chain
modifications: antibody sequence
CD40+ CII target cells
  lysis of CII target cells: less potent
